Measured values from paper doi:10.1101/2025.03.11.642517 (bioRxiv, 2025).
Numbering of substitutions follows the chain as printed.

B1: Biotinylated prefusion NiV F with AviTag (domain or fragment)
chain: ILHYEKLSKIGLVKGVTRKYKIKSNPLTKDIVIKMIPNVSNMSQCTGSVMENYKTRLNGILTPIKGALEIYKNNTHDLVGDVRLAGVIMAGVAIGIATAAQITAGVALYEAMKNADNINKLKSSIESTNEAVVKLQETAEKTVYVLTALQDYINTNLVPTIDKISCKQTELSLDLALSKYLSDLLFVFGPNLQDPVSNSMTIQAISQAFGGNYETLLRTLGYATEDFDDLLESDSITGQIIYVDLSSYYIIVRVYFPILTEIQQAYIQELLPVSFNNDNSEWISIVPNFILVRNTLISNIEIGFCLITKRSVICNQDYATPMTNNMRECLTGSTEKCPRELVVSSHVPRFALSNGVLFANCISVTCQCQTTGRAISQSGEQTLLMIDNTTCPTAVLGNVIISLGKYLGSVNYNSEGIAIGPPVFTDKVDISSQISSMNQSLQQSKDYIKEAQRLLDT
modifications: biotin (on the AviTag, by BirA)
B2: DS90 clone, E. coli crude extract of the bacterial display library (VHH)
VHH: VQLVESGGGLVQAGGSLRLSCAASGRTFSSYVMGWYRQAPGKEREFVARISWSGGHTHSADSVKGRFTISRDNAKNTVYLQMNSLKPDDTAIYYCNAEPTVTGSWFTPGLQSYWGQGTQVTVSS
B3: Bacterially expressed DS90-cMyc (VHH)
VHH: B2 VHH
B4: DS76 clone, E. coli crude extract of the bacterial display library (VHH)
VHH: B2 VHH with R18G, T100S
B5: DS34 clone, E. coli crude extract of the bacterial display library (VHH)
VHH: B2 VHH with V101A
B6: DS29 clone, E. coli crude extract of the bacterial display library (VHH)
VHH: VQLVESGGGLVQPGGSLRLSCAASGFTFDDYGMSWVRQAPGKGLEWVSAISWNGGGTYYAESMKGRFTISRDNAKNTVYLQMNGLKPEDTAVYYCAKPSTYSGSWLTDFGSWGQGTQVTVSS

Columns and labels:
[1] = biological target: DS90 Fc dimer (DS90 nanobody fused to human Fc) (alpaca (Vicugna pacos)); experiment: SPR
[2] = biological target: DS76 FcM (DS76 nanobody fused to human monomeric Fc) (alpaca (Vicugna pacos)); experiment: SPR
[3] = biological target: DS34 FcM (DS34 nanobody fused to human monomeric Fc) (alpaca (Vicugna pacos)); experiment: SPR
[4] = biological target: DS90 FcM (DS90 nanobody fused to human monomeric Fc) (alpaca (Vicugna pacos)); experiment: SPR
[5] = biological target: NiV F expressed in HeLa cells under IRES-GFP (Nipah virus, Malaysia, UniProt Q9IH63); experiment: immunostaining of cells or tissue

| Binder | binding result [5] | also measured |
| --- | --- | --- |
| B1 | – | binding result [1]: binds; Kd [2]: 303 nM; Kd [3]: 23.4 nM; Kd [4]: 4.83 nM |
| B2 | binds | – |
| B3 | binds | – |
| B4 | binds | – |
| B5 | binds | – |
| B6 | binds | – |
